Data taken from patent US20170240883A1, “CYCLIC PEPTIDES EXPRESSED BY A GENETIC PACKAGE” (Miti Biosystems GmbH, priority 2014, published 2017).

T1: substrate peptide NH2-KPTTVKPPSDFEEWTINVC-COOH
T1 chain: KPTTVKPPSDFEEWTINVC


Tests used:
Human Plasma Kallikrein = target: T2, Human Plasma Kallikrein (Homo sapiens, UniProt P03952); experiment: Phage selection of ProcM-modified SynLib1 library on biotinylated kallikrein (output titre); format: binding; conditions: 24 clones from R3 6.25 nM kallikrein output
T2 construct: purchased Molecular Innovations, Inc, USA
T2 sequence (P03952 20-638): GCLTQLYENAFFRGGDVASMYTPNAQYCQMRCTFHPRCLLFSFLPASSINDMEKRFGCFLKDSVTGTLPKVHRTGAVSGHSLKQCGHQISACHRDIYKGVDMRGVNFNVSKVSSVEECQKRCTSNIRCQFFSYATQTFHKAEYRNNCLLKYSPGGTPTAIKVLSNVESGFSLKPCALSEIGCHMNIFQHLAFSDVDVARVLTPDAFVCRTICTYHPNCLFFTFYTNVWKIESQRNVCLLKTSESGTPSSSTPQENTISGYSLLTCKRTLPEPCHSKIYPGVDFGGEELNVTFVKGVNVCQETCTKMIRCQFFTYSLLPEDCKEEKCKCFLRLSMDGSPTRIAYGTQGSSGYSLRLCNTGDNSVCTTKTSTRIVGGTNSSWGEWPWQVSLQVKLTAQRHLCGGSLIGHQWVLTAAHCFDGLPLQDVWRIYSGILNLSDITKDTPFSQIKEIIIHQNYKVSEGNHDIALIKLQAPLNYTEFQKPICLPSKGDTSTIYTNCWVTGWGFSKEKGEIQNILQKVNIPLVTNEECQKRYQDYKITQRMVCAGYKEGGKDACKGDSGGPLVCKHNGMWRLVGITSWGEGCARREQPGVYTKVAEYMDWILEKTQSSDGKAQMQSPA
Experimental: Human Plasma Kallikrein (Molecular Innovations, Inc, USA) at 1.15 mg/ml (13 μM) solution in 4 mM acetate, 150 mM NaCl, pH 5.3 was biotinylated using NHS-PEG4-Biotin from the EZ-link micro-PEO4-biotinylation kit (Pierce Biotechnology, USA). 680 μl of water was added to the contents of the pre-weighed vial of biotinylation reagent to make a 5 mM solution. 1 μl of this solution was added to 100 μl of the kallikrein solution. This was incubated at RT for 1 hour prior to the separation of the biotinylated protein from the unreacted biotin, using a 2 ml Spin Desalting column (Pierce Biotechnology, USA). The volume of the kallikrein was made up to 350 μl with PBS (Formedium Ltd, UK) and was loaded onto the spin column which had been equilibrated with PBS (as per the manufacturer's instructions). When this solution had been absorbed into the column matrix, a further 50 μl of PBS was added on top and the column was spun in a centrifuge at 1000 g for 2 min. 395 μl of solution was collected, making the concentration of the biotinylated kallikrein about 3.25 μM.
150 μl of stock SynLib1 library (2.5e11 phage per μl) was added to 1850 μl of TE buffer, 2 μl 1 M TCEP (Melford Biolaboratories Ltd, UK) and incubated at RT for 20 minutes to reduce the peptides on the phage. […]

[1] = target: T1, substrate peptide …

Molecule | share of the clones that were sequenced (Human Plasma Kallikrein) | dehydration of the peptide, LC-ESI mass spectrometry [1]
AACKGPSPTPNNC [clone 24] | 12.5% | –
Celf5ProcM (ProcM - 5-residue linker - C-terminal ProcA4.3 leader enzyme-leader fusion) (protein) MSEEQLKAFIAKVQADTSLQEQLKAEGADVVAIAKAAGFTITTEDLNSHRQNLTDDELEGVAGGSASGSGSGSAMESPSSWKTSWLAAIAPDEPHKFDRRLEWDELSEENFFAALNSEPASLEEDDPCFEEALQDALEALKAAWDLPLLPVDNNLNRPFVDVWWPIRCHSAESLRQSFVSDSAGLADEIFDQLADSLLDRLCALGDQVLWEAFNKERTPGTMLLAHLGAAGDGSGPPVREHYERFIQSHRRNGLAPLLKEFPVLGRLIGTVLSLWFQGSVEMLQRICADRTVLQQCFAIPCGHHLKTVKQGLSDPHRGGRAVAVLEFADPNSTANSSMHVVYKPKDMAVDAAYQATLADLNTHSDLSPLRTLAIHNGNGYGYMEHVVHHLCANDKELTNFYFNAGRLTALLHLLGCTDCHHENLIACGDQLLLIDTETLLEADLPDHISDASSTTAQPKPSSLQKQFQRSVLRSGLLPQWMFLGESKLAIDISALGMSPPNKPERIALGWLGFNSDGMMPGRVSQPVEIPTSLPVGIGEVNPFDRFLEDFCDGFSMQSEALIKLRNRWLDVNGVLAHFAGLPRRIVLRATRVYFTIQRQQLEPTALRSPLAQALKLEQLTRSFLLAESKPLHWPIFAAEVKQMQHLDIPFFTHLIDADALQLGGLEQELPGFIQTSGLAAAYERLRNLDTDEIAFQLRLIRGAVEARELHTTPESSPTLPPPATPEALMSSSAETSLEAAKRIAHRLLELAIRDSQGQVEWLGMDLGADGESFSFGPVGLSLYGGSIGIAHLLQRLQAQQVSLMDADAIQTAILQPLVGLVDQPSDDGRRRWWRDQPLGLSGCGGTLLALTLQGEQAMANSLLAAALPRFIEADQQLDLIGGCAGLIGSLVQLGTESALQLALRAGDHLIAQQNEEGAWSSSSSQPGLLGFSHGTAGYAAALAHLHAFSADERYRTAAAAALAYERARFNKDAGNWPDYRSIGRDSDSDEPSFMASWCHGAPGIALGRACLWGTALWDEECTKEIGIGLQTTAAVSSVSTDHLCCGSLGLMVLLEMLSAGPWPIDNQLRSHCQDVAFQYRLQALQRCSAEPIKLRCFGTKEGLLVLPGFFTGLSGMGLALLEDDPSRAVVSQLISAGLWPTESASGSGSGSAMSEEQLKAFIAKVQADTSLQEQLKAEGADVVAIAKAAGFTITTEDLNSHRQNLTDDELEGVAGG | – | one portion of the used peptide P2 was found showing triple dehydration with a m/z value of 1069.022
NelfMvdDGS10 (N-terminal MvdE leader - 10-residue linker - MvdD enzyme-leader fusion) (protein) MSKNVKVSAPKAVPFFARFLAEQAVEANNSNSAPSASGSGSGSGSTSGSGSGSAMTVLIFTFSNDNESIPLVVKAIEAKGEKAFRFDTDRFPTEVKLDIYSGDFEGGIVTDGEHKLDLSEVSSVWYRRMRYGAKLPDSMDQQFREASLKECRLTVRGLIASLPGFHFDPMINVDRANNKQLQLQIARQLGLLTPRTLTSNNPEAVKQFAQDCKEQGIVTKMLSQFAIYGENKEENVVFTSPVTDDDLDNLEGLSFCPMTFQENVPKALELRTIIVGKQVFTAAINSQQLDGATYDWRKEGRALHEKWQAYNLPEDIEKKLLQLTAYFGLNYGAIDIIVTPDGRHVFLEINPVGEFFWLELFAPYFPISQAIAEILLTPTNQKPF | – | one portion of the used peptide P2 was found showing triple dehydration with a m/z value of 1069.022
